The labels stand for the following.
B1: MATN2 (parent)
chain: FSLKTFKRKSEVERAVKRMRHLST
B2: PTPLAD1 (parent)
chain: YSFYMLTCIDMDWKVLTWLRYTLW
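Note: lentivirally expressed fusions sorted by FACS into six bins by GFP to DsRed ratio, PSI derived from sequencing read proportions per bin multiplied by bin number.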

In the first series the parent is B1. In words: protein stability index of a GFP-peptide fusion (GPS, HEK-293T) (PSI 1-6); higher = more stable. As to conditions: c terminus: a fixed tail appended.
Regarding FSLKTFKRKSEVERAVKRMRHLSL [T24L], the protein stability index turned out to be 2.4. On the same count and under the same terms, then FSLKTFKRKSEVERAVKRMRHLSP [T24P], with 2.35; and FSLKTFKRKSEVERAVKRMRHLSD [T24D], with 2.44. Turning to FSLKTFKRKSEVERAVKRMRHLSH [T24H], the protein stability index came out at 2.57. Same read-out and setting: then FSLKTFKRKSEVERAVKRMRHLSK [T24K], with 3.38; and FSLKTFKRKSEVERAVKRMRHLSG [T24G], with 3.01. Still for that read-out and setting: then FSLKTFKRKSEVERAVKRMRHLSW [T24W], with 1.55. Still for that read-out and setting: then FSLKTFKRKSEVERAVKRMRHLSQ [T24Q], with 1.55; and FSLKTFKRKSEVERAVKRMRHLSV [T24V], with 1.62. For the variant FSLKTFKRKSEVERAVKRMRHLSI [T24I], the protein stability index was found to be 2.08.

For FSLKTFKRKSEVERAVKRMRHLSN [T24N], the protein stability index came to 3. The same measure, in the same setting: then FSLKTFKRKSEVERAVKRMRHLSS [T24S], with 2.53; and FSLKTFKRKSEVERAVKRMRHLSA [T24A], with 2.72. On the same count and under the same terms, then FSLKTFKRKSEVERAVKRMRHLSE [T24E], with 2.67. Same read-out and setting: then FSLKTFKRKSEVERAVKRMRHLSY [T24Y], with 2.23; and FSLKTFKRKSEVERAVKRMRHLCT [S23C], with 1.42. As to FSLKTFKRKSEVERAVKRMRHLNT [S23N], the protein stability index is 2.53.

On to FSLKTFKRKSEVERAVKRMRHLVT [S23V], for which the protein stability index was found to be 1.28. Turning to FSLKTFKRKSEVERAVKRMRHLET [S23E], the protein stability index is 2. Same read-out and setting: then FSLKTFKRKSEVERAVKRMRHLWT [S23W], with 1.72; and FSLKTFKRKSEVERAVKRMRHLAT [S23A], with 1.81; and FSLKTFKRKSEVERAVKRMRHLIT [S23I], with 2.8. With FSLKTFKRKSEVERAVKRMRHLRT [S23R], the protein stability index was determined as 2.35. Still for that read-out and setting: then FSLKTFKRKSEVERAVKRMRHLPT [S23P], with 2.25. Same read-out and setting: then FSLKTFKRKSEVERAVKRMRHLYT [S23Y], with 2.3; and FSLKTFKRKSEVERAVKRMRHLGT [S23G], with 2.1; and FSLKTFKRKSEVERAVKRMRHLTT [S23T], with 1.89.

Turning to FSLKTFKRKSEVERAVKRMRHLDT [S23D], the protein stability index is 3.11. The same measure, in the same setting: then FSLKTFKRKSEVERAVKRMRHLKT [S23K], with 2.64. On the same count and under the same terms, then FSLKTFKRKSEVERAVKRMRHQST [L22Q], with 2.62. On the same count and under the same terms, then FSLKTFKRKSEVERAVKRMRHMST [L22M], with 2.57; and FSLKTFKRKSEVERAVKRMRHNST [L22N], with 2.47. Turning to FSLKTFKRKSEVERAVKRMRHSST [L22S], the protein stability index worked out at 1.92.

Turning to FSLKTFKRKSEVERAVKRMRHTST [L22T], the protein stability index is 3.17. Still for that read-out and setting: then FSLKTFKRKSEVERAVKRMRHRST [L22R], with 2.68; and FSLKTFKRKSEVERAVKRMRHYST [L22Y], with 1.93.

For FSLKTFKRKSEVERAVKRMRHVST [L22V], the protein stability index was determined as 2.58.

The next series covers variants of B2. Described as above. The note with it: c terminus: a fixed tail appended.
Turning to HSFYMLTCIDMDWKVLTWLRYTLW [Y1H], the protein stability index amounted to 2.28. On to KSFYMLTCIDMDWKVLTWLRYTLW [Y1K], for which the protein stability index amounted to 2.1. Still for that read-out and setting: then VSFYMLTCIDMDWKVLTWLRYTLW [Y1V], with 4.18; and CSFYMLTCIDMDWKVLTWLRYTLW [Y1C], with 2.62.

With QSFYMLTCIDMDWKVLTWLRYTLW [Y1Q], the protein stability index amounted to 3.61. The same measure, in the same setting: then DSFYMLTCIDMDWKVLTWLRYTLW [Y1D], with 1.5. Regarding NSFYMLTCIDMDWKVLTWLRYTLW [Y1N], the protein stability index worked out at 2.57. As for ASFYMLTCIDMDWKVLTWLRYTLW [Y1A], the protein stability index was found to be 2.82. Consider TSFYMLTCIDMDWKVLTWLRYTLW [Y1T], for which the protein stability index stood at 2.2. Same read-out and setting: then RSFYMLTCIDMDWKVLTWLRYTLW [Y1R], with 1.4; and WSFYMLTCIDMDWKVLTWLRYTLW [Y1W], with 3.32; and ISFYMLTCIDMDWKVLTWLRYTLW [Y1I], with 3.26. Same read-out and setting: then LSFYMLTCIDMDWKVLTWLRYTLW [Y1L], with 1.47. On the same count and under the same terms, then PSFYMLTCIDMDWKVLTWLRYTLW [Y1P], with 1.7.

For the variant SSFYMLTCIDMDWKVLTWLRYTLW [Y1S], the protein stability index was determined as 2.07. The same measure, in the same setting: then MSFYMLTCIDMDWKVLTWLRYTLW [Y1M], with 3.57.

In the case of YKFYMLTCIDMDWKVLTWLRYTLW [S2K], the protein stability index was found to be 5.08. Same read-out and setting: then YAFYMLTCIDMDWKVLTWLRYTLW [S2A], with 2.3; and YYFYMLTCIDMDWKVLTWLRYTLW [S2Y], with 2.99; and YTFYMLTCIDMDWKVLTWLRYTLW [S2T], with 1.56.

In the case of YDFYMLTCIDMDWKVLTWLRYTLW [S2D], the protein stability index was 1.35.

On to YPFYMLTCIDMDWKVLTWLRYTLW [S2P], for which the protein stability index turned out to be 2.62. On the same count and under the same terms, then YHFYMLTCIDMDWKVLTWLRYTLW [S2H], with 2.1; and YQFYMLTCIDMDWKVLTWLRYTLW [S2Q], with 1.97; and YCFYMLTCIDMDWKVLTWLRYTLW [S2C], with 1.93. As for YWFYMLTCIDMDWKVLTWLRYTLW [S2W], the protein stability index stood at 2.13. Same read-out and setting: then YIFYMLTCIDMDWKVLTWLRYTLW [S2I], with 2.41; and YVFYMLTCIDMDWKVLTWLRYTLW [S2V], with 1.58. On the same count and under the same terms, then YRFYMLTCIDMDWKVLTWLRYTLW [S2R], with 2.84.

In the case of YMFYMLTCIDMDWKVLTWLRYTLW [S2M], the protein stability index is 2.26. Still for that read-out and setting: then YSYYMLTCIDMDWKVLTWLRYTLW [F3Y], with 3.36; and YSIYMLTCIDMDWKVLTWLRYTLW [F3I], with 3.74; and YSAYMLTCIDMDWKVLTWLRYTLW [F3A], with 2.37. As for YSCYMLTCIDMDWKVLTWLRYTLW [F3C], the protein stability index was 2.18.

Consider YSDYMLTCIDMDWKVLTWLRYTLW [F3D], for which the protein stability index worked out at 2. For the variant YSNYMLTCIDMDWKVLTWLRYTLW [F3N], the protein stability index worked out at 1.46.

Turning to YSEYMLTCIDMDWKVLTWLRYTLW [F3E], the protein stability index was 2.31.

As for YSKYMLTCIDMDWKVLTWLRYTLW [F3K], the protein stability index came to 1.69. Still for that read-out and setting: then YSQYMLTCIDMDWKVLTWLRYTLW [F3Q], with 3.31; and YSHYMLTCIDMDWKVLTWLRYTLW [F3H], with 1.93; and YSLYMLTCIDMDWKVLTWLRYTLW [F3L], with 1.03. On the same count and under the same terms, then YSTYMLTCIDMDWKVLTWLRYTLW [F3T], with 1.68; and YSMYMLTCIDMDWKVLTWLRYTLW [F3M], with 3.14; and YSSYMLTCIDMDWKVLTWLRYTLW [F3S], with 2.61. As for YSPYMLTCIDMDWKVLTWLRYTLW [F3P], the protein stability index was found to be 2.51. Take YSGYMLTCIDMDWKVLTWLRYTLW [F3G]: the protein stability index came to 2.24. Still for that read-out and setting: then YSWYMLTCIDMDWKVLTWLRYTLW [F3W], with 2.37; and YSFIMLTCIDMDWKVLTWLRYTLW [Y4I], with 3.63.

Regarding YSFKMLTCIDMDWKVLTWLRYTLW [Y4K], the protein stability index amounted to 2.05.

Consider YSFLMLTCIDMDWKVLTWLRYTLW [Y4L], for which the protein stability index amounted to 3.13.

For YSFHMLTCIDMDWKVLTWLRYTLW [Y4H], the protein stability index amounted to 3.11.

As for YSFGMLTCIDMDWKVLTWLRYTLW [Y4G], the protein stability index was 2.99.

For YSFCMLTCIDMDWKVLTWLRYTLW [Y4C], the protein stability index turned out to be 4.29. Same read-out and setting: then YSFAMLTCIDMDWKVLTWLRYTLW [Y4A], with 2.33; and YSFFMLTCIDMDWKVLTWLRYTLW [Y4F], with 2.53.

Consider YSFDMLTCIDMDWKVLTWLRYTLW [Y4D], for which the protein stability index came out at 1.99. On the same count and under the same terms, then YSFEMLTCIDMDWKVLTWLRYTLW [Y4E], with 1.77.
